The source of these data is FireProtDB (doi:10.1002/pro.346).

The conditions of this data set: Homo sapiens; pH 7.4; 25 °C; GdnHCl; CD; KPi 50 mM; structure 1TIT.
In the case of Titin Y12685S, Q8WZ42, the “ddG of mutation (higher = less stable)” value was 0.2 kcal/mol, the denaturant m value is 2.2 kcal/mol/M, the “denaturant midpoint (higher = more stable)” value (shortened to “denaturant midpoint”) came out at 2.6 M and the unfolding free energy amounted to 5.7 kcal/mol.

Consider Titin Y12685F, Q8WZ42, for which the “ddG of mutation (higher = less stable)” value worked out at 0.4 kcal/mol, the denaturant m value came to 2.2 kcal/mol/M, the “denaturant midpoint” value amounted to 2.5 M and the unfolding free energy was found to be 5.5 kcal/mol.

Take Titin Y12685P, Q8WZ42: the “ddG of mutation (higher = less stable)” value is 2.2 kcal/mol, the denaturant m value came out at 2.2 kcal/mol/M, the “denaturant midpoint” value worked out at 1.7 M and the unfolding free energy amounted to 3.7 kcal/mol.

Consider Titin Y12685G, Q8WZ42, for which the “ddG of mutation (higher = less stable)” value amounted to 0.8 kcal/mol, the denaturant m value was found to be 2.2 kcal/mol/M, the “denaturant midpoint” value came to 2.3 M and the unfolding free energy came out at 5.1 kcal/mol.
